Source: the supplement of paper PMC10126150
± gives the standard deviation of the averaged measurements.

Test system: ATP
Assay: switch fluorescence ratio, 500 uM ATP over buffer (Cy3 cluster intensity, sum of 5 cycles each) (fold (ratio)); higher = stronger signal-on switching upon ATP binding; sequences stand for … in TCGTCGGCAGCGTCAGATGTGTATAAGAGACAGTTTTTTTTTTTTTTTTTTTTTTTTT…TC
Conditions: aptamer strand: ATP DNA aptamer (quencher-CACCTGGGGGAGTATTGCGGAGGAAGG + anchor), 100 nM annealed; ATP concentration: 500 uM
Summary of the method: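 For every switch-domain sequence, the fluorescence ratio is the mean of per-cluster values, each being summed target-cycle Cy3 intensity over summed buffer-cycle Cy3 intensity. Clusters outside 100-1000 RFU were excluded. On a modified Illumina MiSeq flow-cell, the Cy3-labelled switching-strand clusters were annealed to 100 nM quencher-labelled ATP aptamer, imaged in selection buffer and then after 15 min with 500 uM ATP at 22 °C. Five such cycles were run, with NaOH stripping and re-annealing between them.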
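Note: ATP exposure 15 min at 22 °C before imaging.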

| Sequence | switch fluorescence ratio |
| --- | --- |
| AGTGTTATTG | 0.976 ± 0.028 |
| AGTGTTGCCG | 0.965 ± 0.069 |
| AGTGTTGGGG | 0.998 ± 0.017 |
| AGTGTTGTGG | 0.9904 ± 0.0021 |
| AGTGTTTAAG | 1.036 ± 0.009 |
| AGTGTTTCTG | 0.973 ± 0.049 |
| AGTTAACGGT | 1.18 ± 0.19 |
| AGTTAACTTT | 1.02 ± 0.028 |
| AGTTAAGGGA | 0.991 ± 0.062 |
| AGTTAATGAC | 0.997 ± 0.013 |
| AGTTAATTTG | 0.9823 ± 0.0097 |
| AGTTACGAAA | 1.11 ± 0.025 |
| AGTTAGCTT | 1.02 ± 0.072 |
| AGTTAGGAAA | 1.02 ± 0.032 |
| AGTTAGGGTT | 0.999 ± 0.039 |
| AGTTAGTAGT | 0.981 ± 0.021 |
| AGTTAGTGGT | 0.978 ± 0.023 |
| AGTTATAAAG | 0.986 ± 0.037 |
| AGTTATGTTG | 0.995 ± 0.021 |
| AGTTATTTGG | 1 ± 0.0047 |
| AGTTCATTGG | 1.04 ± 0.059 |
| AGTTCCATCG | 1.05 ± 0.047 |

| Sequence | switch fluorescence ratio |
| --- | --- |
| AGTTCCGAGG | 1.12 ± 0.14 |
| AGTTCGGTTT | 0.9581 ± 0.0039 |
| AGTTCTAGGG | 0.971 ± 0.031 |
| AGTTGAACCC | 0.9872 ± 0.0016 |
| AGTTGATTGT | 0.9895 ± 0.0076 |
| AGTTGCGGTT | 1.002 ± 0.0018 |
| AGTTGCTCCT | 0.986 ± 0.024 |
| AGTTGCTTGT | 1.01 ± 0.036 |
| AGTTGGAGCG | 1.026 ± 0.0041 |
| AGTTGGAGCT | 0.95964 ± 9.2e-05 |
| AGTTGGCAAT | 1.24 ± 0.061 |
| AGTTGGCGGA | 0.999 ± 0.024 |
| AGTTGGCTTT | 1.018 ± 0.008 |
| AGTTGGGATC | 1.036 ± 0.008 |
| AGTTGGGGAA | 0.983 ± 0.031 |
| AGTTGGGGAC | 1.012 ± 0.0071 |
| AGTTGGTATT | 0.998 ± 0.015 |
| AGTTGGTCTA | 1 ± 0.017 |
| AGTTGTGGAG | 0.986 ± 0.018 |
| AGTTGTGTGG | 1.02 ± 0.023 |
| AGTTTAGGGT | 1.03 ± 0.054 |
| AGTTTATCTG | 1.01 ± 0.04 |

| Sequence | switch fluorescence ratio |
| --- | --- |
| AGTTTCCTAG | 0.971 ± 0.022 |
| AGTTTCGGGA | 1 ± 0.033 |
| AGTTTCGGTC | 1 ± 0.028 |
| AGTTTCTTAG | 1.015 ± 0.0019 |
| AGTTTGCTAG | 0.994 ± 0.034 |
| AGTTTGCTTG | 0.993 ± 0.025 |
| AGTTTGGACA | 0.997 ± 0.015 |
| AGTTTGGGCC | 1.017 ± 0.0059 |
| AGTTTGGTCA | 0.98 ± 0.021 |
| AGTTTTCAAG | 1 ± 0.026 |
| AGTTTTGAAG | 0.9906 ± 0.0096 |
| AGTTTTGAG | 0.9928 ± 0.0097 |
| AGTTTTGAGG | 1.001 ± 0.0016 |
| AGTTTTGCGT | 1.01 ± 0.034 |
| AGTTTTGGGT | 0.967 ± 0.02 |
| AGTTTTTAAT | 0.999 ± 0.018 |
| AGTTTTTATT | 1.03 ± 0.015 |
| AGTTTTTTAT | 1 ± 0.022 |
| ATAAAAAGGG | 1 ± 0.029 |
| ATAAAAGGTG | 1.1 ± 0.074 |
| ATAAAATTTA | 1.04 ± 0.03 |
| ATAAAATTTT | 1 ± 0.03 |

| Sequence | switch fluorescence ratio |
| --- | --- |
| ATAAACGACT | 1.06 ± 0.024 |
| ATAAAGGCGA | 0.975 ± 0.043 |
| ATAAAGGGCT | 0.988 ± 0.054 |
| ATAAAGGTTG | 0.993 ± 0.016 |
| ATAAAGTATG | 0.99 ± 0.018 |
| ATAAAGTTTC | 1.03 ± 0.015 |
| ATAAATACAG | 0.9959 ± 0.0042 |
| ATAAATGTGT | 1.01 ± 0.041 |
| ATAAATGTTA | 0.999 ± 0.011 |
| ATAACACTTC | 1.03 ± 0.015 |
| ATAACCGTGG | 1.05 ± 0.074 |
| ATAACGAGTC | 1.04 ± 0.15 |
| ATAACGTAGC | 1.11 ± 0.059 |
| ATAACTTATA | 1.011 ± 0.0041 |
| ATAAGACCCG | 0.98609 ± 0.00056 |
| ATAAGAGTCT | 1.03 ± 0.094 |
| ATAAGGAACG | 1.01 ± 0.061 |
| ATAAGGAGAT | 0.9759 ± 0.0042 |
| ATAAGGAGGA | 1.1 ± 0.23 |
